Data on nine substances can be found in PMC10700433.

Broadly, the pKd is −log10 of the Kd, conventionally taken in molar units.

pKd: −log10 of the molar value.

Chain of mouse FcγRI (P26151 25-404): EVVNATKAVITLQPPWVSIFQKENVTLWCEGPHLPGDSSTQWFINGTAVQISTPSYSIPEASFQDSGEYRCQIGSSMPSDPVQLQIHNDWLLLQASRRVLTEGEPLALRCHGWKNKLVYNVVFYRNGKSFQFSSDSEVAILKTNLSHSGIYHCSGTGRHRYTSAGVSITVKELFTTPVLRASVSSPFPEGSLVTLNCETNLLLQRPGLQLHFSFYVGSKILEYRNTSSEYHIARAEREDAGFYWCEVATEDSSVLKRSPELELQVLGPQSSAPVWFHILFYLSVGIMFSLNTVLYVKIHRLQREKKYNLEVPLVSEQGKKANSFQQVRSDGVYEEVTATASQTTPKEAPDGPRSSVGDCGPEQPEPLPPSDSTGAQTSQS
Chain of human FcRn (P55899 24-365): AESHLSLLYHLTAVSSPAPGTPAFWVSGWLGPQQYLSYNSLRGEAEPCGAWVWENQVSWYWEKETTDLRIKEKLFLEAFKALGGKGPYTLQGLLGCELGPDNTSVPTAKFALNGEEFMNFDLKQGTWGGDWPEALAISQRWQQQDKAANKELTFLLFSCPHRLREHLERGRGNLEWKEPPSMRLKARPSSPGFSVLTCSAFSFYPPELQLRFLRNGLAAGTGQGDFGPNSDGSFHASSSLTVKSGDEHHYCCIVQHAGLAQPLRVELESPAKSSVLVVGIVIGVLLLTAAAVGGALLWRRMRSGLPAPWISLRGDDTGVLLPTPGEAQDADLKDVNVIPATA
Chain of mouse FcRn (Q61559 22-365): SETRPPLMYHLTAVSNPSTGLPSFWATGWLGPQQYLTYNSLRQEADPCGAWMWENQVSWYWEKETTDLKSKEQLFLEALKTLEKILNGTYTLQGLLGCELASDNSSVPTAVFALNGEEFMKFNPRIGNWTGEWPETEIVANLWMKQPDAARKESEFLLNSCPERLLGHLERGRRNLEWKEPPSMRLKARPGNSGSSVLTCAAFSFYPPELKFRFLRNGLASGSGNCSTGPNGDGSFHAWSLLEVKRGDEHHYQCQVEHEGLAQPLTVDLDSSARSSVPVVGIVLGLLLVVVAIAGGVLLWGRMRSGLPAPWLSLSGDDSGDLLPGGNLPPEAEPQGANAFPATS
Chain of mouse FcγRIV (A0A0B4J1G0 21-249): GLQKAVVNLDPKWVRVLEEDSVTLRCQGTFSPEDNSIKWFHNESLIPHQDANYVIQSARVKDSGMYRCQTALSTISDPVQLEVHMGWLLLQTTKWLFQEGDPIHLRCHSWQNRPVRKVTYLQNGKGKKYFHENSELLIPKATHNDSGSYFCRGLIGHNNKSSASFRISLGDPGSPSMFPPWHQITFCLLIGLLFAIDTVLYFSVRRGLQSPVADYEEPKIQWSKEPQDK

For the first test, the target named is IgG4 control antibody. The test is described as follows: BLI; Octet RED96; antibodies captured on FABG2 biosensor tips, recombinant Fcγ receptors in solution at suitable concentration ranges; association and dissociation at physiological pH. (In general: BLI is a label-free optical method that tracks binding on a fibre tip over time.)
With “human FcγRIII 176V (from UniProt P08637 17-254) (receptor)”, the negative logarithm of the Kd (pKd) was 3.22.

On to “human FcγRIIa (from UniProt P12318 34-317) (receptor)”, for which the negative logarithm of the Kd (pKd) was 6.30.

On to “mouse FcγRIIb (from UniProt P08101 30-330) (receptor)”, for which the pKd is 6.15.

“human FcγRIIb (from UniProt P31994 43-310) (receptor)”: the pKd is 6.22.

For the substance “mouse FcγRI (from UniProt P26151 25-404) (receptor)”, the negative logarithm of the Kd (pKd) is 6.70.

With “mouse FcγRIV (from UniProt A0A0B4J1G0 21-249) (receptor)”, the pKd was 5.70.

Take “mouse FcγRIII (from UniProt P08508 31-261) (receptor)”: the pKd was 7.00.

The target of another test is IgG4 control antibody. The experiment in a line: BLI; Octet RED96; antibodies captured on FABG2 biosensor tips, recombinant FcRn in solution; association studied at physiological pH, dissociation at pH6.
Turning to “mouse FcRn (from UniProt Q61559 22-365) (receptor)”, the negative-log Kd (pKd) was 6.70.

Regarding “human FcRn (from UniProt P55899 24-365) (receptor)”, the pKd is 6.22.
